PMC5836121 (2017)

Legend:
KRas(WT) = KRas(WT) (human, UniProt P01116 1-187, 15N-labelled in NMR; biotin on the yBBr tag (by Sfp) in SPR); experiment: SPR; GppNHp
225-3 miniprotein = 225-3 miniprotein (fluorescein (N-(5-fluoresceinyl)maleimide) in fluorescence polarisation; biotin-PEG2-maleimide where immobilised in SPR; unlabelled otherwise); experiment: FP; GppNHp

B1: 225-15a/b heterodimeric miniprotein (designed binder)
chain 1: SGPRRPRCPGDQASLEELHEYWARLWNYLYRVAH
chain 2: GGGPRRPRCPGDNASIKQLHAYWQRLYAYLAAVA
modifications: oxidized dimer (disulfide with the other chain) | oxidized dimer (disulfide with the other chain)
- Kd (KRas(WT)): 90 pM

B2: Rab25 (natural protein)
chain: MGNGTEEDYNFVFKVVLIGESGVGKTNLLSRFTRNEFSHDSRTTIGVEFSTRTVMLGTAAVKAQIWDTAGLERYRAITSAYYRGAVGALLVFDLTKHQTYAVVERWLKELYDHAEATIVVMLVGNKSDLSQAREVPTEEARMFAENNGLLFLETSALDSTNVELAFETVLKEIFAKVSKQRQNSIRTNAITLGSAQAGQEPGPGEKRACCISL
modifications: biotinylated in SPR; unlabelled in fluorescence polarisation
- Kd (225-3 miniprotein): > 10 µM

B3: RalA (natural protein)
chain: MAANKPKGQNSLALHKVIMVGSGGVGKSALTLQFMYDEFVEDYEPTKADSYRKKVVLDGEEVQIDILDTAGQEDYAAIRDNYFRSGEGFLCVFSITEMESFAATADFREQILRVKEDENVPFLLVGNKSDLEDKRQVSVEEAKNRAEQWNVNYVETSAKTRANVDKVFFDLMREIRARKMEDSKEKNGKKKRKSLAKRIRERCCIL
modifications: biotinylated in SPR; unlabelled in fluorescence polarisation
- Kd (225-3 miniprotein): > 10 µM
